For 1 substance, Rel. β-gal. activity % results are on record in US20010024831A1.

The assay deals with specific antigen (aa 245-258 of the GCN4 leucine zipper) fused to LexA (yeast). Description: yeast two hybrid, LacZ reporter, bait LexA-GCN4 leucine zipper; Empty Vector is printed as 0.18.

Substance “Gal4 AD-AL5 scFv fusion (ampicillin-binding control scFv AL5) (from UniProt P04386 768-881)” showed a Rel. β-gal. activity % of 0.19%.
